According to the supplement of paper PMC12042874:
± gives the uncertainty stated by the source.

Experiment: amyloid nucleation score (Sup35N fusion, yeast selection) (log enrichment); library NNK2; higher = more nucleation; inactive = no reads after selection
How it was run: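 Sup35N fusions to peptides of 20 random codons were expressed in psi-negative yeast, induced 24 hours with 100 μM copper sulfate, and grown 7 days at 30°C on medium lacking adenine and uracil. Input and output plasmid inserts were sequenced by Illumina. The nucleation score is the DiMSum log enrichment of output over input reads, centred on the mode score of non-aggregating sequences. Sequences with under 100 input reads were excluded.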

Substance | amyloid nucleation score
ITYYHCVSHARNTKNQLTDF | inactive
IVCPKSGNAVVYGLMTMNNK | 0.329 ± 0.62
IVCQDFYTAWEYYTYAHR | 3.07 ± 0.048
IVDLNLGSEESLFSYLGMSV | -2.45 ± 0.54
IVDTRGVPIWREISSIRVDL | -0.669 ± 0.74
IVEVVFRSIPIAMDSCCCSN | -1.14 ± 0.28
IVGAIRSKILGTGQTRVIWG | 0.477 ± 0.65
IVGLQVAFFLVFKSVHRDVA | inactive
IVLAYSKTPREVN | -0.086 ± 0.65
IVLSSYLIWLD | inactive
IVLYSGCVYKD | 0.218 ± 0.33
IVMGLGLGASVSRGWNN | 3.58 ± 0.069
IVMYRLRLLQDATN | 0.259 ± 0.65
IVNLPSYYRASRQEDVVKGR | 0.75 ± 0.36
IVPRIKSAMLLKF | -0.301 ± 0.21
IVQRLPVFKFLMYELCLLNG | -0.894 ± 0.38
IVSKDRQNFVRCKDSRDHDV | -0.002 ± 0.39
IVSLCFNNWGSYRVNGQYLY | 6.564 ± 0.033
IVTLVSDAYSKLTRLMNSVS | -0.561 ± 0.23
IVVSKVLLIWFPLLRRGANL | 0.159 ± 0.49
IVVVLWTFFDG | -1.09 ± 0.55
IWESSIYLNEETNDCLEKL | inactive
IWLVQGTAFPGMLSGQGWLL | 0.147 ± 0.76
IWRAQTSWSSSMFTWAVGLR | 1.4 ± 0.33
IWRSRKLHDMYTVVRGVASD | 0.182 ± 0.56

Substance | amyloid nucleation score
IWVGSILTQSPVVDGYFRCR | 0.145 ± 0.35
IWVYFTQHRWRLGKNVGQSC | 0.586 ± 0.51
IYHLPNR | 5.988 ± 0.035
IYLVSNLMGYKCFLSNHLAR | 0.151 ± 0.32
IYNNLTCWSDASHGVCFGMD | 4.67 ± 0.058
IYSEDGRAMASMIHVSRKHG | 0.91 ± 0.43
KAEHVFFVYRGLTEVFASGL | inactive
KALAYAWLCISLYKDFGYYN | inactive
KAPRTIYPVVLQPAS | -0.484 ± 0.33
KAREWQVLVRCKKLTMKYSK | 8.227 ± 0.046
KCGRWPANAVYWHDTLSCAC | 0.231 ± 0.31
KCLDSFDMSDMYSR | -0.632 ± 1.1
KCLWWFWLQDRKKRVMCLTG | 0.771 ± 0.43
KCPSESMRKFF | 0.672 ± 0.53
KCTFMTDFMIIDEVMYWNRC | 1.35 ± 0.46
KCWYRH | 1.39 ± 0.1
KDFFSVVSH | 0.573 ± 0.66
KDLEFGRCIDDDYPLSRSF | 0.141 ± 0.46
KDRDNVTGNSVVVRLRRRVL | -0.296 ± 0.54
KEEVRSLFIGTFPKIFFGLH | 0.251 ± 0.46
KEGFPMIIDYEIGFTDLSGG | -1.43 ± 0.75
KELDLDFRCFQYYNVVVVPQ | 2.33 ± 0.091
KELRQSVVIM | 0.644 ± 0.35
KERELSTTECCTILCSVLFY | 6.852 ± 0.059
KFDLSCNPNSPGSLRYTLNN | inactive

Substance | amyloid nucleation score
KFFDRYMFTRGLHT | 7.819 ± 0.051
KFFFSCTTKFL | 3.06 ± 0.1
KFFLFDHNNNF | 0.699 ± 0.33
KFGVGSLLTSLGYATRSCYL | -0.771 ± 0.25
KFKATWYRNSFRAMPCVKPA | 0.042 ± 1.1
KFLGYQLPPRDSSSGTF | 0.066 ± 0.27
KFMARDLRTYFIALQPRCKD | 6.614 ± 0.05
KGCVLCNIFCRSKGVVGSTL | 8.737 ± 0.035
KGDGNRSDTDVFITHIFMYY | 6.336 ± 0.048
KGDRKKDCMPDLVYRKLSGV | 0.798 ± 0.67
KGFIIFSFSSAIR | 2.46 ± 0.1
KGGEVEGLSLR | -0.889 ± 0.63
KGIQYSTLVTRRFWMW | 3.68 ± 0.088
KGPTSLLYLVMCFMVLQQLR | -0.447 ± 0.78
KGRVVSCIWGSCPGTSGR | -0.235 ± 1.1
KGVCWVTICELHDW | -0.305 ± 0.48
KGVRVQDTNVGIWAGKWGVV | 0.883 ± 0.29
KGWNMHSPMRALQHAETVGT | 0.859 ± 0.3
KHIWAMNGCYSLLLKNPALV | -0.649 ± 1.1
KHMLASSFVTVPFVAPCFHF | inactive
KIAWLTLHLTMWFST | 0.329 ± 0.41
KICYWLRRASVYMLVVLGRP | -0.343 ± 0.49
KIMYVSQECSGADLLGLYFF | -0.747 ± 0.79
KINCLFISLGNRSRVVRTS | 0.681 ± 0.37
KIRNSGG | 0.747 ± 0.56

Substance | amyloid nucleation score
KIYERPAITDFGSQVD | -0.505 ± 0.21
KKRQCGMVGLNLVGQYLHSF | -1.3 ± 0.62
KKVYVSDTIWMDYNNS | 3.93 ± 0.064
KLACVEGTKWAASGIAPNV | 0.946 ± 0.2
KLALVDIGLVPVIAIMCWMS | 0.877 ± 0.14
KLFIRWVAWY | 0.113 ± 0.8
KLLKYLSNSFTHRVLCNHDD | inactive
KLMLSALFLKVPAIIGRYRW | 0.736 ± 0.8
KLMPLTTIPDEVWYFIGYRL | -0.501 ± 0.32
KLSSKDHRFYKVSMKRV | 0.247 ± 0.8
KLSSRYIYLYSRYEPSS | inactive
KLVMFVGIFSNT | 6.39 ± 0.085
KLYWGNWWCRGSLVDTI | 0.695 ± 0.66
KMCIAKKSWEGQLVILYMSA | -0.354 ± 0.48
KMGLRRFNFCARFEYRTSVA | -0.048 ± 0.25
KMSYVYP | -0.622 ± 0.41
KNLLVHNFACGR | 0.462 ± 0.74
KNNVCSHIPNLGSYYLF | 0.736 ± 0.8
KNSVVL | 0.275 ± 0.64
KNSYNVPEYLRLLLWGNGMC | inactive
KNTVKDGWRMMMDGCMNTHW | 0.259 ± 0.15
KNTYKQACWQAELHKGLLVG | 0.748 ± 0.17
KNYHCTLSWLWFMACFSGIP | 2.61 ± 0.15
KPFHLIKTWKQLLLEKGGPN | -0.157 ± 0.28
KPLCS | -0.58 ± 0.55

Substance | amyloid nucleation score
KPLNVHELIVSYEYYLLFCQ | inactive
KPVGPVYAS | -0.262 ± 0.48
KQENMPDSAVVYCRRWGSDM | 0.057 ± 0.76
KRFGNFMTLRTLRVT | 1.42 ± 0.14
KRIPSSWWFVGLVGITWRPA | 0.826 ± 0.29
KRSLNLLKGLIYL | -1.05 ± 1.1
KRTTLWTARSRLCERTLNCS | 0.324 ± 0.24
KRVLDSGFN | -0.845 ± 1
KRVSASDISSLYADVRIKE | -0.852 ± 0.76
KSCAVFYSSNYVSGSNYLFF | 6.369 ± 0.047
KSCGLLAYDT | inactive
KSIGTAGFDN | -0.846 ± 0.42
KSKRMVTMHKMNENTGLLGD | 0.543 ± 0.5
KTFMCSFSQHVKGSGVFLTS | -0.346 ± 0.49
KTIFGGWSARSGNISMPSWM | 0.267 ± 0.54
KTMWLLWINGLHMSSHFRSK | -0.006 ± 0.22
KTYEMTDQVIRKPYPL | 0.347 ± 0.25
KVFLWIMLWAMPHTSSGFKP | -0.305 ± 0.48
KVFRSVGMFVCP | 1 ± 0.29
KVFVAYGMAVMLFYICHSK | 4.561 ± 0.037
KVGVVNYTTSLRFAGRDSSL | 4.52 ± 0.091
KVLRCYGDHFHHANSRTCLR | -1.08 ± 0.76
KVSAPHCRLGFWCILC | inactive
KWDIIYNNDVGNLCVLVSN | -0.817 ± 1
KWGVAFNCSYNGVDNVNFWC | 6.807 ± 0.058

Substance | amyloid nucleation score
KWIRFWVKDAFRVGRCHIWG | 0.038 ± 0.5
KWNRWYVALCLVSV | 10.08 ± 0.03
KWVRLNKFNLPPHYSPPQTM | 1.42 ± 0.24
KYDVEGMQVSRNFY | -0.424 ± 0.79
KYFTVTDVSLY | 5.911 ± 0.028
KYLGLGAFCVTVDYQRVWDA | 0.879 ± 0.58
KYSAYWG | 0.518 ± 0.4
KYTCLVMAL | 1.11 ± 0.28
KYVALALERFMLAAHGTSLT | -0.235 ± 0.33
LAAGWGVLHELL | inactive
LAGSVTIPLPTCYSIMTSRP | 0.233 ± 0.77
LAGWRRK | 0.355 ± 0.36
LAGYSHTI | 0.406 ± 0.46
LAKGPSQDYGAVPHKVMFHS | 0.961 ± 0.58
LALSTCFYSWIVLAMFFHRK | 3.16 ± 0.11
LALWCTWEVRLIDESAMTTF | 0.467 ± 0.29
LANRPCWFLQRARAMV | 0.959 ± 0.74
LAQNEHTLVFILLTNGKS | 3.18 ± 0.046
LASNFGFHGLAADMDALWCY | -1.23 ± 0.78
LAWGNHRVLRWSAPHNIRSR | 0.93 ± 0.33
LCAWDWSGTRVR | 0.903 ± 0.67
LCEISRASPQGGDRDRAMGK | -0.018 ± 0.55
LCFYK | 0.388 ± 0.32
LCNKVL | 0.27 ± 0.27
LCTRHACNIYGPLPNAHLVR | 0.643 ± 0.31

Substance | amyloid nucleation score
LCVKVFRRFYRHVHIVHVSQ | -0.337 ± 0.4
LCVVY | -0.237 ± 0.35
LDCNDYRDVCVSGFYVCIEG | -0.597 ± 0.27
LDFALNCNSRFSLTQDS | 2.83 ± 0.13
LDILIAQALEVFSDQYCNY | -0.992 ± 0.42
LDLICMDLWFWTNTS | -0.006 ± 0.4
LDLLKNCCTASMPGSLVVGR | 0.369 ± 0.65
LDMRSRLHFDDCTRRGYLGM | -0.166 ± 0.65
LDMSQYYSSRVF | inactive
LDPKIRWLWK | 0.204 ± 0.6
LDRFLSMRLFLPYVTNLRNH | -0.431 ± 0.64
LDSLCG | 0.546 ± 0.57
LDWGCILVQ | 0.012 ± 0.43
LDYFFAAL | inactive
LEAYVGLLCLSGRLTFSGKC | 2.6 ± 0.1
LELWFGDWNRVMYSCSVDWG | -0.096 ± 0.5
LENLHTLC | inactive
LERECVENDGLGWSRLEYVR | 0.42 ± 0.33
LESMRRY | 1.42 ± 0.27
LEVCFWFRNSVTKVSMSACL | -1.06 ± 0.63
LEVTIMTRFVLMLMTLCFPS | -0.066 ± 0.36
